{"source": "patent US20200384107A1", "molecular_target": "CD40 (as in Table 2, species and form not stated)", "test": "binding kinetics, method not stated", "data": [{"substance": "5D12 (anti-CD40 antibody)", "values": [{"measurement": "Kd", "value": 10.2, "unit": "nM"}, {"measurement": "koff", "value": "1.54e-05", "unit": "s⁻¹"}, {"measurement": "kon", "value": 1510, "unit": "M⁻¹ s⁻¹"}]}]}
